The results in this text go back to patent publication US20150147330A1.

This assay addresses human glypican-3 (GPC3), cell-associated (human) (UniProt P51654). In words: flow cytometry on cells expressing native GPC3, MFI titration, Scatchard plot (Prism).

Usually Kd stands for the concentration at which binding is half-saturated. A low value points to tighter binding.

As to YP7 (antibody), the Kd stood at 0.3 nM.
